Drawing on PMC9367181 (Chemico-Biological Interactions, 2022), this text covers Ki and Km for 3 molecules.

In one data set the target is T1, human carboxylesterase 1 (Homo sapiens, UniProt P23141).
T1 sequence (P23141 18-567): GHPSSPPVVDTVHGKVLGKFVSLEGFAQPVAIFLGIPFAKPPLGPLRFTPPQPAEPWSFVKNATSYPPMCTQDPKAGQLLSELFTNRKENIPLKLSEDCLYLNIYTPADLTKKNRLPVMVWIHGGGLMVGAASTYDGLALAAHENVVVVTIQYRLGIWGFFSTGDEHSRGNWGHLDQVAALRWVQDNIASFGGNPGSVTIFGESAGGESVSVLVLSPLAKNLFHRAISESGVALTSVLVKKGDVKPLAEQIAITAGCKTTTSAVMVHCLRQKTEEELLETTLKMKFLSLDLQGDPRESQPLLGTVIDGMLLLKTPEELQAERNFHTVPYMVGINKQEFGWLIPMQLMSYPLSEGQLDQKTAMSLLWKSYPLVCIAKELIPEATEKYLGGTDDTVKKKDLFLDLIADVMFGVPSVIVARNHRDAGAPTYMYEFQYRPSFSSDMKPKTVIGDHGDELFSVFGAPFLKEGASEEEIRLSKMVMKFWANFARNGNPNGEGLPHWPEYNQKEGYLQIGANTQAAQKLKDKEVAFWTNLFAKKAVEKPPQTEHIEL
As to the kind of experiment: inhibition of remdesivir hydrolysis in CES1-expressing cell S9 fraction, HPLC. It counts as biochemical.

Substrate in data set [1]: CCC(CC)COC(=O)[C@H](C)N[P@](=O)(OC[C@H]1O[C@@](C#N)(c2ccc3c(N)ncnn23)[C@H](O)[C@@H]1O)Oc1ccccc1
Description: Michaelis-Menten kinetics of hydrolysis to GS-704277 in S9 fraction, HPLC. In kind it is biochemical, Homo sapiens.

Substitutions are numbered along the chain they refer to. Numbers in names are those of the source.

Broadly, the Ki is the dissociation constant of the complex between target and ligand, obtained from inhibition or displacement. The low end stands for tighter binding, the high end for weaker binding. In general, Km refers to the concentration of substrate that gives half-maximal velocity.

`C=C(C)[C@@H]1CCC(C)=C[C@H]1c1c(O)cc(CCCCC)cc1O` [cannabidiol] displayed a Ki at human carboxylesterase 1 of 890 nM.

B1: human carboxylesterase 1 (Homo sapiens) (protein)
chain: T1 sequence (P23141 18-567)
In the case of B1, the Km in data set [1] was determined as 14.19 µM.

B2: human carboxylesterase 1 (Homo sapiens; G143E) (protein)
chain: T1 sequence (P23141 18-567) with G126E
Take B2: in data set [1], the Km is 93.94 µM.
